14 molecules from article PMC4144951, “Dissecting the Functional Role of the N-Terminal Domain of the Human Small Heat Shock Protein HSPB6” (PLoS ONE, 2014) can be followed below.

Substitutions are numbered along the chain they refer to. Numbers in names are those of the source.

Data set [1] addresses HSPB6 Δ31–40 (human) (UniProt O14558). Description: SEC-coupled SAXS; inline HPLC, Shodex KW404-4F, 20°C, 20 mM HEPES, 150 mM NaCl, pH 7.4, 2.5 mM DTT; 75 µl of 5 mg/ml HSPB6 or equivalent molarity loaded (ΔN11: 111 µl of 3.37 mg/ml); mass at the peak maximum from I0 and Porod volume; number of subunits of the oligomer.
Data set [2] has as its target HSPB6 Δ31–35 (human) (UniProt O14558). The data set is described as above.
Data set [3] has the same target. Description: SEC; data not shown; three loaded concentrations, no larger oligomeric species seen; size of the oligomer (dimer). (Size exclusion chromatography separates by hydrodynamic size, large species first.)
Data set [4] deals with the molecule itself. Description: SEC; 100 µl at 2.5, 5 and 10 mg/ml on Superdex 200 10/300 GL, 4°C, 25 mM HEPES pH 7.5, 150 mM NaCl, 2.5 mM DTT; apparent MW from column calibration; the shift of the peak with loaded concentration is read as self-association of the dimers with each other (dimer to higher species).
Data set [5] has as its target human recombinant insulin (human, UniProt P01308 25-54; P01308 90-110). Description: cell-based or functional assay.
Data set [6] deals with the molecule itself. Description: SEC-coupled SAXS; inline HPLC, Shodex KW404-4F, 20°C, 20 mM HEPES, 150 mM NaCl, pH 7.4, 2.5 mM DTT; 75 µl of 5 mg/ml HSPB6 or equivalent molarity loaded (ΔN11: 111 µl of 3.37 mg/ml); mass at the peak maximum from I0 and Porod volume; number of subunits of the oligomer.
Data set [7] concerns the molecule itself. Description: SEC; data not shown; three loaded concentrations, no larger oligomeric species seen; size of the oligomer (dimer).
Data set [8] concerns the target T1, human HSPB6, wild type, full length (human), O14558.
T1 chain: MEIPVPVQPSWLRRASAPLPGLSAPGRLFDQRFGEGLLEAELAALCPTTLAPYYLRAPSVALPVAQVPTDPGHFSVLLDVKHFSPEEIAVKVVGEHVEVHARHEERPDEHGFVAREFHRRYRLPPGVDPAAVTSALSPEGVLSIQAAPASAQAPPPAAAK
Described as above. The conditions noted are these: remark: other sources report otherwise.

Data set [9] deals with T1, human HSPB6, wild type, full length …. Description: SEC; 100 µl at 2.5, 5 and 10 mg/ml on Superdex 200 10/300 GL, 4°C, 25 mM HEPES pH 7.5, 150 mM NaCl, 2.5 mM DTT; apparent MW from column calibration; the shift of the peak with loaded concentration is read as self-association of the dimers with each other (dimer to higher species). To be noted: remark: other sources report otherwise.

Data set [10] has the same target. Description: SEC-coupled SAXS; inline HPLC, Shodex KW404-4F, 20°C, 20 mM HEPES, 150 mM NaCl, pH 7.4, 2.5 mM DTT; 75 µl of 5 mg/ml HSPB6 or equivalent molarity loaded (ΔN11: 111 µl of 3.37 mg/ml); mass at the peak maximum from I0 and Porod volume; number of subunits of the oligomer. To be noted: remark: other sources report otherwise.
Data set [11] concerns the molecule itself. Description: SEC; 100 µl at 2.5, 5 and 10 mg/ml on Superdex 200 10/300 GL, 4°C, 25 mM HEPES pH 7.5, 150 mM NaCl, 2.5 mM DTT; apparent MW from column calibration; the shift of the peak with loaded concentration is read as self-association of the dimers with each other (dimer to higher species). The source holds these as a separate data set.

Chain of human recombinant insulin (P01308 25-54, chain 1 of 2): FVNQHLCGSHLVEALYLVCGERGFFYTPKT
Chain of human recombinant insulin (P01308 90-110, chain 2 of 2): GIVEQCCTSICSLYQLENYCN

Usually stoichiometry N stands for a count of units in the complex or per binding partner. Turning to “HSPB6 Δ31–40 (from UniProt O14558 1-160) (natural protein)”, the stoichiometry N in data set [1] was 2 subunits.
For “HSPB6 Δ31–35 (from UniProt O14558 1-160) (natural protein)”, the stoichiometry N in data set [2] was 2.2 subunits; in [3] it was 2.

B1: HSPB6 Δ51–60 (natural protein, human, UniProt O14558 1-160, looked up)
chain: MEIPVPVQPSWLRRASAPLPGLSAPGRLFDQRFGEGLLEAELAALCPTTLALPVAQVPTDPGHFSVLLDVKHFSPEEIAVKVVGEHVEVHARHEERPDEHGFVAREFHRRYRLPPGVDPAAVTSALSPEGVLSIQAAPASAQAPPPAAAK
notes: HSPB6, human, full-length protein with residues 51-60 deleted; source: E. coli NiCo21 (DE3) with pRARE2, purified (subtractive IMAC, anion exchange, SEC); not shown: SUMO, N-terminal, cleaved
Take B1: in data set [4], the “concentration dependence of apparent MW” value was 0.31 kDa/(mg/ml). Also, the “percentage protection against DTT-induced aggregation of insulin (A340 after 90 min, 37°C), insulin:sHSP 1:0.2 to 1:0.05” value (“percentage protection” for short) in data set [5] is approximately 50 % decrease. Also, in [6], the “stoichiometry N” value is 1.9 subunits.

B2: HSPB6 Δ61–70 (natural protein, human, UniProt O14558 1-160, looked up)
chain: B1 chain with L52P, P53Y, V54Y, A55L, Q56R, V57A, T59S, D60V
notes: HSPB6, human, full-length protein with residues 61-70 deleted; By SAXS closer to a tetramer than to a dimer; source: E. coli NiCo21 (DE3) with pRARE2, purified (subtractive IMAC, anion exchange, SEC); not shown: SUMO, N-terminal, cleaved
Turning to B2, in data set [4], the “concentration dependence of apparent MW” value is 3.4 kDa/(mg/ml). In addition, the “stoichiometry N” value in data set [6] stood at 3.5 subunits.

B3: HSPB6 ΔN11 (domain or fragment, human, UniProt O14558 12-160, looked up)
chain: LRRASAPLPGLSAPGRLFDQRFGEGLLEAELAALCPTTLAPYYLRAPSVALPVAQVPTDPGHFSVLLDVKHFSPEEIAVKVVGEHVEVHARHEERPDEHGFVAREFHRRYRLPPGVDPAAVTSALSPEGVLSIQAAPASAQAPPPAAAK
notes: HSPB6, human, without its first 11 residues (ΔN10 begins with the sole tryptophan; ΔN11 removes it too); Prone to aggregate; could not be concentrated above about 4-5 mg/ml; also called ΔN11-construct; source: E. coli NiCo21 (DE3) with pRARE2, purified (subtractive IMAC, anion exchange, SEC); not shown: SUMO, N-terminal, cleaved
For B3, the “stoichiometry N” value in data set [6] is 2.5 subunits.

B4: HSPB6 Δ11–20 (natural protein, human, UniProt O14558 1-160, looked up)
chain: MEIPVPVQPSGLSAPGRLFDQRFGEGLLEAELAALCPTTLAPYYLRAPSVALPVAQVPTDPGHFSVLLDVKHFSPEEIAVKVVGEHVEVHARHEERPDEHGFVAREFHRRYRLPPGVDPAAVTSALSPEGVLSIQAAPASAQAPPPAAAK
notes: HSPB6, human, full-length protein with residues 11-20 deleted; also called ΔN11–20; source: E. coli NiCo21 (DE3) with pRARE2, purified (subtractive IMAC, anion exchange, SEC); not shown: SUMO, N-terminal, cleaved
Take B4: the “concentration dependence of apparent MW” value in [4] was 0.81 kDa/(mg/ml). Moreover, the “percentage protection” value in data set [5] was approximately 50 % decrease. In addition, in data set [6], the “stoichiometry N” value was determined as 1.8 subunits.

B5: HSPB6 Δ41–50 (natural protein, human, UniProt O14558 1-160, looked up)
chain: B1 chain with E41A, L42P, A43Y, A44Y, C46R, P47A, T48P, T49S, L50V
notes: HSPB6, human, full-length protein with residues 41-50 deleted; source: E. coli NiCo21 (DE3) with pRARE2, purified (subtractive IMAC, anion exchange, SEC); not shown: SUMO, N-terminal, cleaved
For the molecule B5, the “concentration dependence of apparent MW” value in [4] was 1.92 kDa/(mg/ml). For the same molecule, the “percentage protection” value in data set [5] is approximately 50 % decrease. Also, the “stoichiometry N” value in data set [6] turned out to be 2.3 subunits.

B6: HSPB6 Δ21–30 (natural protein, human, UniProt O14558 1-160, looked up)
chain: B4 chain with G11W, S13R, A14R, P15A, G16S, R17A, L18P, F19L, D20P
notes: HSPB6, human, full-length protein with residues 21-30 deleted; source: E. coli NiCo21 (DE3) with pRARE2, purified (subtractive IMAC, anion exchange, SEC); not shown: SUMO, N-terminal, cleaved
As to B6, in data set [4], the “concentration dependence of apparent MW” value was 1.29 kDa/(mg/ml). Besides, the “percentage protection” value in data set [5] was approximately 50 % decrease. Moreover, the “stoichiometry N” value in [6] stood at 2.2 subunits.

B7: HSPB6 Δ36–40 (natural protein, human, UniProt O14558 1-160, looked up)
chain: MEIPVPVQPSWLRRASAPLPGLSAPGRLFDQRFGEELAALCPTTLAPYYLRAPSVALPVAQVPTDPGHFSVLLDVKHFSPEEIAVKVVGEHVEVHARHEERPDEHGFVAREFHRRYRLPPGVDPAAVTSALSPEGVLSIQAAPASAQAPPPAAAK
notes: HSPB6, human, full-length protein with residues 36-40 deleted; source: E. coli NiCo21 (DE3) with pRARE2, purified (subtractive IMAC, anion exchange, SEC); not shown: SUMO, N-terminal, cleaved
Take B7: in data set [4], the “concentration dependence of apparent MW” value was 1.8 kDa/(mg/ml). The “stoichiometry N” value in data set [7] amounted to 2.

B8: human HSPB6, wild type, full length, O14558 1-160 (natural protein)
chain: T1 chain
Take B8: the stoichiometry N in data set [8] was 2; in data set [10] it was 2.2 subunits. The concentration dependence of apparent MW in data set [9] is 1.51 kDa/(mg/ml).

B9: HSPB6 F33Y (natural protein, human, UniProt O14558 1-160, looked up)
chain: T1 chain with F33Y
notes: HSPB6, human, full-length protein with the point mutation F33Y; source: E. coli NiCo21 (DE3) with pRARE2, purified (subtractive IMAC, anion exchange, SEC); not shown: SUMO, N-terminal, cleaved
As for B9, the “stoichiometry N” value in [6] is 1.9 subunits.

B10: HSPB6 Q31A (natural protein, human, UniProt O14558 1-160, looked up)
chain: T1 chain with Q31A
notes: HSPB6, human, full-length protein with the point mutation Q31A; Mixture of dimers and what appear to be tetramers; source: E. coli NiCo21 (DE3) with pRARE2, purified (subtractive IMAC, anion exchange, SEC); not shown: SUMO, N-terminal, cleaved
As for B10, the figures for the “stoichiometry N” value in data set [11] and in [6] were approximately 4 and 4.2 subunits, respectively. The “concentration dependence of apparent MW” value in data set [4] was 1.1 kDa/(mg/ml).

B11: HSPB6 F33A (natural protein, human, UniProt O14558 1-160, looked up)
chain: T1 chain with F33A
notes: HSPB6, human, full-length protein with the point mutation F33A; source: E. coli NiCo21 (DE3) with pRARE2, purified (subtractive IMAC, anion exchange, SEC); not shown: SUMO, N-terminal, cleaved
As for B11, the “stoichiometry N” value in data set [6] is 2.3 subunits.

B12: HSPB6 Q31L (natural protein, human, UniProt O14558 1-160, looked up)
chain: T1 chain with Q31L
notes: HSPB6, human, full-length protein with the point mutation Q31L; source: E. coli NiCo21 (DE3) with pRARE2, purified (subtractive IMAC, anion exchange, SEC); not shown: SUMO, N-terminal, cleaved
For B12, the “concentration dependence of apparent MW” value in data set [4] was 1.87 kDa/(mg/ml). In data set [6], the “stoichiometry N” value was 4.3 subunits.
